Data from patent US20090214489A1 (published 2009).
Blank lines part the entries; values can stand above or below the molecule they belong to. Where no end group is shown, it is not given here.

How the values were obtained:
[1] = biological target: murine TPO receptor on Balb/C mouse marrow cells (mouse) (UniProt Q08351); assay: cell-based or functional assay
[2] = biological target: T1, full length human TPO-R on transfected Ba/F3 cells (human, UniProt P40238 26-635); assay: cell-based or functional assay
T1 sequence (looked up): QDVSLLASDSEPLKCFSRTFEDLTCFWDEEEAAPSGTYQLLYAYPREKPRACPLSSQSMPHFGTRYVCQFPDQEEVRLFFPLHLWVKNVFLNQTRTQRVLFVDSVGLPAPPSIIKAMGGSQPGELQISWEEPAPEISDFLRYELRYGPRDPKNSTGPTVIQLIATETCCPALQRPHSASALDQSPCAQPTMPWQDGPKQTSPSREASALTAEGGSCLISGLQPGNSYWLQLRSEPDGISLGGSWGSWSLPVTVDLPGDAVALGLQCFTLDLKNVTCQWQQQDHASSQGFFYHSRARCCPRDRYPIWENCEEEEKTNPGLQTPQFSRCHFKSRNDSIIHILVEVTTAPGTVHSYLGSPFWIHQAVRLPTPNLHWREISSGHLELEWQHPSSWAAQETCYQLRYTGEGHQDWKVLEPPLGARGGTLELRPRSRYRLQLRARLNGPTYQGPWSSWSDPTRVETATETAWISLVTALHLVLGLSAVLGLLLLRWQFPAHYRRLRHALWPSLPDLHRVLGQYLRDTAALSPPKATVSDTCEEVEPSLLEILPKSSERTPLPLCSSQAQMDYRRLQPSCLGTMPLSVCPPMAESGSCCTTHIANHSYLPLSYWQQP

- activity (assay not given) [2]: > 10 µm
B1: Table 8 compound, drawing CHEM-US-00054 (peptide)
peptide: CGTEGPTLSTWLDC
modifications: not fully specified; cysteine pairing not given here

- activity (assay not given) [2]: > 10 µm
B6: Table 8 compound, drawing CHEM-US-00061 (peptide)
peptide: REGPTLRQWLMSRS
modifications: not fully specified

- activity (assay not given) [2]: > 10 µm
B7: Table 8 compound, drawing CHEM-US-00057 (peptide)
peptide: CTLAEFLASGVEQC
modifications: not fully specified; cysteine pairing not given here

- activity (assay not given) [2]: > 10 µm
B8: Table 8 compound, drawing CHEM-US-00048 (peptide)
peptide: CQRADLINFC
modifications: not fully specified; cysteine pairing not given here

- activity (assay not given) [2]: > 10 µm
B12: Table 8 compound, drawing CHEM-US-00044 (peptide)
peptide: CTRAQFLKGC
modifications: not fully specified; cysteine pairing not given here

- activity (assay not given) [2]: > 10 µm
B15: Table 8 compound, drawing CHEM-US-00052 (peptide)
peptide: CLTGPFVTQWLYEC
modifications: not fully specified; cysteine pairing not given here

- activity (assay not given) [2]: > 10 µm
B16: Table 8 compound, drawing CHEM-US-00055 (peptide)
peptide: CELVGPSLMSWLTC
modifications: not fully specified; cysteine pairing not given here

The remaining lines, values behind:

Molecule: rhuTPO (from UniProt P40225 22-353) (ligand)
- colonies of 3-5 large cells, mouse marrow in methylcellulose, 1 nM TPO, #1-1 [1]: 15 colonies
- colonies of 3-5 large cells, mouse marrow in methylcellulose, 1 nM TPO, #1-2 [1]: 12 colonies
- colonies of 3-5 large cells, mouse marrow in methylcellulose, 1 nM TPO, #2-1 [1]: 16 colonies
- colonies of 3-5 large cells, mouse marrow in methylcellulose, 1 nM TPO, #2-2 [1]: 13 colonies
- colonies of 6-12 large cells, mouse marrow in methylcellulose, 1 nM TPO, #1-1 [1]: 6 colonies
- colonies of 6-12 large cells, mouse marrow in methylcellulose, 1 nM TPO, #1-2 [1]: 1 colonies
- colonies of 6-12 large cells, mouse marrow in methylcellulose, 1 nM TPO, #2-1 [1]: 8 colonies
- colonies of 6-12 large cells, mouse marrow in methylcellulose, 1 nM TPO, #2-2 [1]: 3 colonies

B2: Table 8 compound, drawing CHEM-US-00058 (peptide)
peptide: CTLKEWLVSHEVWC
modifications: not fully specified; cysteine pairing not given here
- activity (assay not given) [2]: > 10 µm

B3: Table 8 compound, drawing CHEM-US-00046 (peptide)
peptide: CNRSQLLAAC
modifications: not fully specified; cysteine pairing not given here
- activity (assay not given) [2]: > 10 µm

B4: Table 8 compound, drawing CHEM-US-00051 (peptide)
peptide: CTLGQWLQMGMC
modifications: not fully specified; cysteine pairing not given here
- activity (assay not given) [2]: > 10 µm

B5: Table 8 compound, drawing CHEM-US-00045 (peptide)
peptide: CNINQLRSIC
modifications: not fully specified; cysteine pairing not given here
- activity (assay not given) [2]: > 10 µm

B9: Table 8 compound, drawing CHEM-US-00060 (peptide)
peptide: REGPTLRQWM
modifications: not fully specified
- activity (assay not given) [2]: > 10 µm

B10: Table 8 compound, drawing CHEM-US-00053 (peptide)
peptide: CTLREFLDPTTAVC
modifications: not fully specified; cysteine pairing not given here
- activity (assay not given) [2]: > 10 µm

B11: Table 8 compound, drawing CHEM-US-00056 (peptide)
peptide: CSLKEFLHSGLMQC
modifications: not fully specified; cysteine pairing not given here
- activity (assay not given) [2]: > 10 µm

B13: Table 8 compound, drawing CHEM-US-00049 (peptide)
peptide: CLLSEFLAGQQC
modifications: not fully specified; cysteine pairing not given here
- activity (assay not given) [2]: > 10 µm

B14: Table 8 compound, drawing CHEM-US-00047 (peptide)
peptide: CTSTQWLLAC
modifications: not fully specified; cysteine pairing not given here
- activity (assay not given) [2]: > 10 µm
